Laboratory results reported in US20050054615A1, “Calmodulin independent activation of nitric oxide synthase” (Rensselaer Polytechnic Institute, priority 2002, published 2005).

Target: T1, eNOS (Bos taurus, UniProt P29473, DEL841-841)
T1 construct: made in house; host or cells: E. coli BL21 (pCWori+)
Assay: NO synthase activity per heme of eNOS mutants
Format: biochemical, bovine
Conditions: fully activated state (Ca+2/CaM)
Procedure: Expression and purification of wild type and mutant bovine eNOS and rat nNOS. Expression and purification of bovine eNOS and rat nNOS were performed using procedures similar to those previously described (Martasek, P.,et al., (1996) Biochem Biophys Res Commun. 219(2); 359-65). Transformed cells were broken with a French press, and after centrifugation to remove cell debris the supernatant was loaded on a 2′5′ADP affinity column, washed, and eluted with 2′AMP as described (id). […] Enzyme sample concentrations were determined on the basis of heme concentration, except in heme free preparations, where the flavin concentration was measured. UV-visible absorbance spectra were recorded on an Aminco DW-2000 spectrophotometer.
Nitric Oxide production was assayed using the Griess assay as adapted for microtiter plates (Gross, S. S. (1996) Methods Enzymol. 268:159-68); calcium dependence was measured using EDTA as a Ca+2 buffer system. […] NADPH-dependent cytochrome c reduction was measured spectrophotometrically as described by McMillan et al (McMillan, K., et al., (1992) Proc Nat. Acad. Sci. U.S.A. 89, 11141-11145), adapted to 96-well plate microtiter plates. […] Cytochrome c reduction was monitored at 550 nm (ε=2.1×104/M). […] Assays were performed on a SpectraMAX plate reader (Molecular Devices).

activity per heme in the fully activated state: 85 % of wild type
B1: G841 deletion mutant: bovine eNOS small insertion mutant with G841 deleted (protein, UniProt P29473 2-1205, looked up, variant G841*)
Nitric oxide synthase 3: GNLKSVGQEPGPPCGLGLGLGLGLCGKQGPASPAPEPSRAPAPATPHAPDHSPAPNSPTLTRPPEGPKFPRVKNWELGSITYDTLCAQSQQDGPCTPRCCLGSLVLPRKLQTRPSPGPPPAEQLLSQARDFINQYYSSIKRSGSQAHEERLQEVEAEVASTGTYHLRESELVFGAKQAWRNAPRCVGRIQWGKLQVFDARDCSSAQEMFTYICNHIKYATNRGNLRSAITVFPQRAPGRGDFRIWNSQLVRYAGYRQQDGSVRGDPANVEITELCIQHGWTPGNGRFDVLPLLLQAPDEAPELFVLPPELVLEVPLEHPTLEWFAALGLRWYALPAVSNMLLEIGGLEFSAAPFSGWYMSTEIGTRNLCDPHRYNILEDVAVCMDLDTRTTSSLWKDKAAVEINLAVLHSFQLAKVTIVDHHAATVSFMKHLDNEQKARGGCPADWAWIVPPISGSLTPVFHQEMVNYILSPAFRYQPDPWKGSATKGAGITRKKTFKEVANAVKISASLMGTLMAKRVKATILYASETGRAQSYAQQLGRLFRKAFDPRVLCMDEYDVVSLEHEALVLVVTSTFGNGDPPENGESFAAALMEMSGPYNSSPRPEQHKSYKIRFNSVSCSDPLVSSWRRKRKESSNTDSAGALGTLRFCVFGLGSRAYPHFCAFARAVDTRLEELGGERLLQLGQGDELCGQEEAFRGWAKAAFQASCETFCVGEEAKAAAQDIFSPKRSWKRQRYRLSTQAEGLQLLPGLIHVHRRKMFQATVLSVENLQSSKSTRATILVRLDTAGQEGLQYQPGDHIGICPPNRPGLVEALLSRVEDPPPPTESVAVEQLEKGSPGPPPSWVRDPRLPPCTLRQALTFFLDITSPPSPRLLRLLSTLAEEPSEQQELETLSQDPRRYEEWKWFRCPTLLEVLEQFPSVALPAPLLLTQLPLLQPRYYSVSSAPNAHPGEVHLTVAVLAYRTQDGLGPLHYGVCSTWLSQLKTGDPVPCFIRGAPSFRLPPDPYVPCILVGPGTGIAPFRGFWQERLHDIESKGLQPAPMTLVFGCRCSQLDHLYRDEVQDAQERGVFGRVLTAFSREPDSPKTYVQDILRTELAAEVHRVLCLERGHMFVCGDVTMATSVLQTVQRILATEGDMELDEAGDVIGVLRDQQRYHEDIFGLTLRTQEVTSRIRTQSFSLQERHLRGAVPWAFDPPGPDTPGP
